From doi:10.1101/2025.02.06.636808, “DNA Binding by the Escherichia coli MinC–MinD Complex Requires the MinC Interdomain Linker” (bioRxiv, 2025)

T1: MinD (E. coli) (E. coli, UniProt P0AEZ3 1-270)
T1 construct: source: E. coli Rosetta(DE3)pLysS, purified (nickel IMAC, desalting); His tag removed with thrombin; not shown: T7 tag, N-terminal, kept
T1 sequence (looked up): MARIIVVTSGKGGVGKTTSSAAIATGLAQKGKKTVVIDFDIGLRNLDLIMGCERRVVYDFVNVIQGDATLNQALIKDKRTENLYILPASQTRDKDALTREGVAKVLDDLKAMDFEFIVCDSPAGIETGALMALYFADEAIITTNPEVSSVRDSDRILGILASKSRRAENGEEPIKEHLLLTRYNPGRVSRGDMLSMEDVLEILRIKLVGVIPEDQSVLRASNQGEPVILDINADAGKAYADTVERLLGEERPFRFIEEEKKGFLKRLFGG

B1: MinC-2xAGGSG linker mutant (natural protein, E. coli)
chain: MSNTPIELKGSSFTLSVVHLHEAEPKVIHQALEDKIAQAPAFLKHAPVVLNVSALEDPVNWSAMHKAVSATGLRVIGVSGCKDAQLKAEIEKMGLPILTEGAGGSGAGGSGPVTKTRLIDTPVRSGQRIYAPQCDLIVTSHVSAGAELIADGNIHVYGMMRGRALAGASGDRETQIFCTNLMAELVSIAGEYWLSDQIPAEFYGKAARLQLVENALTVQPLN
notes: MinC, E. coli MG1655, N-terminal part before the linker, residues 1-101; linker that replaces residues 102-120 of MinC: AGGSG repeated twice; MinC, E. coli MG1655, C-terminal part after the linker, residues 121-231; source: E. coli Rosetta(DE3)pLysS, purified (nickel IMAC, desalting); His tag removed with thrombin; not shown: T7 tag, N-terminal, kept
B2: MinC-3xAGGSG linker mutant (natural protein, E. coli)
chain: MSNTPIELKGSSFTLSVVHLHEAEPKVIHQALEDKIAQAPAFLKHAPVVLNVSALEDPVNWSAMHKAVSATGLRVIGVSGCKDAQLKAEIEKMGLPILTEGAGGSGAGGSGAGGSGPVTKTRLIDTPVRSGQRIYAPQCDLIVTSHVSAGAELIADGNIHVYGMMRGRALAGASGDRETQIFCTNLMAELVSIAGEYWLSDQIPAEFYGKAARLQLVENALTVQPLN
notes: MinC, E. coli MG1655, N-terminal part before the linker, residues 1-101; linker that replaces residues 102-120 of MinC: AGGSG repeated three times; MinC, E. coli MG1655, C-terminal part after the linker, residues 121-231; source: E. coli Rosetta(DE3)pLysS, purified (nickel IMAC, desalting); His tag removed with thrombin; not shown: T7 tag, N-terminal, kept
B3: MinC-1xAGGSG linker mutant (natural protein, E. coli)
chain: MSNTPIELKGSSFTLSVVHLHEAEPKVIHQALEDKIAQAPAFLKHAPVVLNVSALEDPVNWSAMHKAVSATGLRVIGVSGCKDAQLKAEIEKMGLPILTEGAGGSGPVTKTRLIDTPVRSGQRIYAPQCDLIVTSHVSAGAELIADGNIHVYGMMRGRALAGASGDRETQIFCTNLMAELVSIAGEYWLSDQIPAEFYGKAARLQLVENALTVQPLN
notes: MinC, E. coli MG1655, N-terminal part before the linker, residues 1-101; linker that replaces residues 102-120 of MinC; MinC, E. coli MG1655, C-terminal part after the linker, residues 121-231; source: E. coli Rosetta(DE3)pLysS, purified (nickel IMAC, desalting); His tag removed with thrombin; not shown: T7 tag, N-terminal, kept
B4: MinE (E. coli) (natural protein, UniProt P0A734 1-88, looked up)
chain: MALLDFFLSRKKNTANIAKERLQIIVAERRRSDAEPHYLPQLRKDILEVICKYVQIDPEMVTVQLEQKDGDISILELNVTLPEAEELK
notes: a T7 tag from pET28a may be left; source: E. coli Rosetta(DE3)pLysS, purified (nickel IMAC, desalting)
B5: MinC-4xAGGSG linker mutant (natural protein, E. coli)
chain: MSNTPIELKGSSFTLSVVHLHEAEPKVIHQALEDKIAQAPAFLKHAPVVLNVSALEDPVNWSAMHKAVSATGLRVIGVSGCKDAQLKAEIEKMGLPILTEGAGGSGAGGSGAGGSGAGGSGPVTKTRLIDTPVRSGQRIYAPQCDLIVTSHVSAGAELIADGNIHVYGMMRGRALAGASGDRETQIFCTNLMAELVSIAGEYWLSDQIPAEFYGKAARLQLVENALTVQPLN
notes: MinC, E. coli MG1655, N-terminal part before the linker, residues 1-101; linker that replaces residues 102-120 of MinC: AGGSG repeated four times; MinC, E. coli MG1655, C-terminal part after the linker, residues 121-231; source: E. coli Rosetta(DE3)pLysS, purified (nickel IMAC, desalting); His tag removed with thrombin; not shown: T7 tag, N-terminal, kept
B6: MinC19RL linker mutant (natural protein, E. coli)
chain: MSNTPIELKGSSFTLSVVHLHEAEPKVIHQALEDKIAQAPAFLKHAPVVLNVSALEDPVNWSAMHKAVSATGLRVIGVSGCKDAQLKAEIEKMGLPILTEGAGGSGAGGSGAGGSGAGGSPVTKTRLIDTPVRSGQRIYAPQCDLIVTSHVSAGAELIADGNIHVYGMMRGRALAGASGDRETQIFCTNLMAELVSIAGEYWLSDQIPAEFYGKAARLQLVENALTVQPLN
notes: MinC, E. coli MG1655, N-terminal part before the linker, residues 1-101; linker that replaces residues 102-120 of MinC: as the 4x linker but without the last glycine, 19 residues; MinC, E. coli MG1655, C-terminal part after the linker, residues 121-231; source: E. coli Rosetta(DE3)pLysS, purified (nickel IMAC, desalting); His tag removed with thrombin; not shown: T7 tag, N-terminal, kept
B7: MinC-GS linker mutant (natural protein, E. coli)
chain: MSNTPIELKGSSFTLSVVHLHEAEPKVIHQALEDKIAQAPAFLKHAPVVLNVSALEDPVNWSAMHKAVSATGLRVIGVSGCKDAQLKAEIEKMGLPILTEGGSPVTKTRLIDTPVRSGQRIYAPQCDLIVTSHVSAGAELIADGNIHVYGMMRGRALAGASGDRETQIFCTNLMAELVSIAGEYWLSDQIPAEFYGKAARLQLVENALTVQPLN
notes: MinC, E. coli MG1655, N-terminal part before the linker, residues 1-101; linker that replaces residues 102-120 of MinC; MinC, E. coli MG1655, C-terminal part after the linker, residues 121-231; Made from pET28a-MinC by amplifying the whole plasmid except residues 102-120; source: E. coli Rosetta(DE3)pLysS, purified (nickel IMAC, desalting); His tag removed with thrombin; not shown: T7 tag, …

target: T1, MinD (E. coli); assay: co-sedimentation; liposome co-sedimentation without DNA, competition: MinD 1 uM, MinC 1 uM, increasing MinE, 160 ug/mL liposomes, 1 mM ATP, ATPase buffer; SDS-PAGE, Coomassie; conditions: both partners purified

binding result | Binder
binds | B1
binds | B2
binds | B3
binds | B4
binds | B5

target: T1, MinD (E. coli); assay: co-sedimentation; liposome co-sedimentation without DNA: MinD 2 uM, MinC 2 uM, 0.5 mg/mL liposomes, 1 mM ATP, ATPase buffer (25 mM Tris-HCl pH 7.5, 50 mM KCl, 5 mM MgCl2, 5% glycerol); SDS-PAGE, Coomassie; conditions: both partners purified

binding result | Binder
binds | B6
binds | B7
